Measured values reported in paper PMC2898018.

Molecular target: His-tagged WRN (E84A) (human) (UniProt Q14191)
UniProt Q14191, sequence (Q14191 whole entry E84A): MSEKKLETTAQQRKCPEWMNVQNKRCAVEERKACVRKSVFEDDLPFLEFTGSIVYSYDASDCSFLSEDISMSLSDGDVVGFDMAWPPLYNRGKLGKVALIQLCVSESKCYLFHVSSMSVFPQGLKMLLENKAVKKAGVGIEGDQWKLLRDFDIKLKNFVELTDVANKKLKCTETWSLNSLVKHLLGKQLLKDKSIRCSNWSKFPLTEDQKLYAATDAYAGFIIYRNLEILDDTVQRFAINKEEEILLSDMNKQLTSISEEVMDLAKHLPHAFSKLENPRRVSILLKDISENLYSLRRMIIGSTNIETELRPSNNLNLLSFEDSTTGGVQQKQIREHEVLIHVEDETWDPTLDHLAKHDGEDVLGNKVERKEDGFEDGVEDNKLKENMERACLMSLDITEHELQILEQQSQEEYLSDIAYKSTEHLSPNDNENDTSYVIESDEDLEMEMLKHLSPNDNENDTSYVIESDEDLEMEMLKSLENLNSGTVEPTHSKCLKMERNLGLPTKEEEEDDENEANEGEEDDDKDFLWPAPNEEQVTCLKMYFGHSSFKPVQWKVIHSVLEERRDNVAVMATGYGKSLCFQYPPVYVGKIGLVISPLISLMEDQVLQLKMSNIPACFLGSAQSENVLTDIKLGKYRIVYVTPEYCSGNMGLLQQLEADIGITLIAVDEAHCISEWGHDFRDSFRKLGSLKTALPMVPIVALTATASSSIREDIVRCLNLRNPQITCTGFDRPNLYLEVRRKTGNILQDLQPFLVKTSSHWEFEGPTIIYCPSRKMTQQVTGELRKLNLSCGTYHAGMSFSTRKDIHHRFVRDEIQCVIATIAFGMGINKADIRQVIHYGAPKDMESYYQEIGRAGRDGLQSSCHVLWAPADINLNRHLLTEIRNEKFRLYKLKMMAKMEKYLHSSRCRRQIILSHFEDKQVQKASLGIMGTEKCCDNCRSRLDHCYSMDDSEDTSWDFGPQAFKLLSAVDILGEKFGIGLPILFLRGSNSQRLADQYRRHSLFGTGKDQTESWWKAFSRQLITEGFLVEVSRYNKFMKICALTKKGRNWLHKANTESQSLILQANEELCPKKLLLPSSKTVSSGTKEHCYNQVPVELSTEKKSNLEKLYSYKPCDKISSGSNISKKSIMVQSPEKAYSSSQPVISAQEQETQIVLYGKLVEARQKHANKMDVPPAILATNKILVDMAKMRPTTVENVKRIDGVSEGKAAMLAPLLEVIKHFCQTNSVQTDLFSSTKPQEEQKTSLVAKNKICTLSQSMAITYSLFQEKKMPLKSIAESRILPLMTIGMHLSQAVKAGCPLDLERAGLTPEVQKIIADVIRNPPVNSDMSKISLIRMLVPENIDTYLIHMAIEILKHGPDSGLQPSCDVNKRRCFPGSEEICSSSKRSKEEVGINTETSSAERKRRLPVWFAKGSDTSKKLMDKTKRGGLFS

DNA-PKcs, the catalytic subunit of DNA-PK (from UniProt P78527 1-4128) (enzyme)
unwinding of the telomeric D-loop substrate by WRN (E84A) (3.3 nM) preincubated with DNA-PKcs (16.7 nM), native gel; 3.3% unwound in the absence of DNA-PKcs: 66%
